In publication PMC11257959, “Structural basis of the histone ubiquitination read–write mechanism of RYBP–PRC1” (Nature Structural & Molecular Biology, 2024):

What was measured:
[1] = target: T1, RING1B:BMI1 full-length heterodimer (human, UniProt Q99496 1-336; P35226 1-326); experiment: SEC; purified RYBP mixed with purified RING1B:BMI1 at a 1:1 molar ratio, cation exchange, then SEC in 25 mM Tris-HCl pH 7, 150 mM NaCl, 10% glycerol, 2 mM DTT; conditions: both partners purified
T1 construct: also called RING1B:BMI1 dimer; source: High Five insect cells (baculovirus, coexpressed from one vector), purified (Ni-NTA, twin strep-tag cleavage, SEC); not shown: twin strep-tag, N-terminal, cleaved; His6, C-terminal, kept
T1 sequence (looked up) 1: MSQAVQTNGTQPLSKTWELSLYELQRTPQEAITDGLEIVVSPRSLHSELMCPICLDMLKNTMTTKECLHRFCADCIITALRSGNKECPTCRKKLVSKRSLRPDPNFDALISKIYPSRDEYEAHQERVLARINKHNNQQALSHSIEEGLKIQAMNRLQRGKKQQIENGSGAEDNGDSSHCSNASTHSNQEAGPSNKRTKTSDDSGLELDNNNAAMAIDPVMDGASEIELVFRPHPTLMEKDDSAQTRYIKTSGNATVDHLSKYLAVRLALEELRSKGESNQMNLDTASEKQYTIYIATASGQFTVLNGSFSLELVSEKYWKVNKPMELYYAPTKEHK
T1 sequence (looked up) 2: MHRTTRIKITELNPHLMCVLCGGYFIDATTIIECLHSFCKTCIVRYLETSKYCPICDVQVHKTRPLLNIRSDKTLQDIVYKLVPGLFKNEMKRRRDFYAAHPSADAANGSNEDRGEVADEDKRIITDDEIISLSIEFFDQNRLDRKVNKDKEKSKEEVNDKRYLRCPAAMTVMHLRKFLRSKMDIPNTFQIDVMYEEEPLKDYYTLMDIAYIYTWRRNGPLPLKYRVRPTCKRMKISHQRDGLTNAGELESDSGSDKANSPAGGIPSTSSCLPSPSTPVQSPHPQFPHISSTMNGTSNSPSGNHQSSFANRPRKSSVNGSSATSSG

human ubiquitin = target: T2, human ubiquitin (human, UniProt P0CG47 1-76, conjugated to H2A); experiment: cryo-EM structure; vPRC1:Nuc_(H2Aub1); Nuc_(H2Aub1)/vPRC1 ratio of 1:5 in UB buffer, 1 h at 4 °C; biotinylated nucleosomes bound to streptavidin-coated grids, two additional washes; conditions: both partners purified
T2 construct: human ubiquitin, the cut product of the precursor; Stood as the ubiquitin moiety of H2Aub1 in the nucleosome; source: bought: Boston Biochem; conjugated to H2A of the nucleosome in vitro

[2] = target: T3, human RING1B, full length (human, UniProt Q99496 1-336); experiment: SEC; RING1B and BMI1 coexpressed in insect cells from one vector, Ni-NTA (His tag on BMI1), tag cleavage, SEC (S200); conditions: partners not purified
T3 construct: In the cryo-EM sample a subunit of vPRC1; residues 15-115 were built; source: High Five insect cells (baculovirus), coexpressed with BMI1, purified; not shown: twin strep-tag, N-terminal, cleaved
T3 sequence (looked up): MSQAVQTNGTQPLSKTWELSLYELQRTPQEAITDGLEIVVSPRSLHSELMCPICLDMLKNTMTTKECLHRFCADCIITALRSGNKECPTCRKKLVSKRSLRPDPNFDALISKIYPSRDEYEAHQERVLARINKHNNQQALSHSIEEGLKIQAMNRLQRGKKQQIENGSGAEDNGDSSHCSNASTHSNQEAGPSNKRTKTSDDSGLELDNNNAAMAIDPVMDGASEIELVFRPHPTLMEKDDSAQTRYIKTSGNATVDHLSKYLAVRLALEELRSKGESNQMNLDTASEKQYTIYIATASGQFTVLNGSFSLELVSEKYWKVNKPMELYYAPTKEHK

[3] = target: T4, Drosophila melanogaster histone H4 (D. melanogaster, UniProt P84040 1-103); experiment: cryo-EM structure; vPRC1:Nuc; Nuc/vPRC1 ratio of 1:10 in UB buffer, 1 h at 4 °C; biotinylated nucleosomes bound to streptavidin-coated grids; conditions: both partners purified
T4 construct: histone H4, D. melanogaster; Stood within the nucleosome; source: bought: The Histone Source (Colorado State University); in the reconstituted nucleosome

B1: human RYBP, full length (natural protein, UniProt Q8N488 1-228, looked up)
chain: MTMGDKKSPTRPKRQAKPAADEGFWDCSVCTFRNSAEAFKCSICDVRKGTSTRKPRINSQLVAQQVAQQYATPPPPKKEKKEKVEKQDKEKPEKDKEISPSVTKKNTNKKTKPKSDILKDPPSEANSIQSANATTKTSETNHTSRPRLKNVDRSTAQQLAVTVGNVTVIITDFKEKTRSSSTSSSTVTSSAGSEQQNQSSSGSESTDKGSSRSSTPKGDMSAVNDESF
notes: In the cryo-EM sample it stood as a subunit of vPRC1; residues 23-58 were built; source: High Five insect cells (baculovirus), purified (Ni-NTA, His tag cleavage, reverse Ni-NTA); not shown: His6, N-terminal, cleaved
- binding result [1]: binds
- binding result (human ubiquitin): binds

B2: RYBP_(R47A/R53A/R56A) (natural protein, human, UniProt Q8N488 1-228, looked up)
chain: MTMGDKKSPTRPKRQAKPAADEGFWDCSVCTFRNSAEAFKCSICDVAKGTSTAKPAINSQLVAQQVAQQYATPPPPKKEKKEKVEKQDKEKPEKDKEISPSVTKKNTNKKTKPKSDILKDPPSEANSIQSANATTKTSETNHTSRPRLKNVDRSTAQQLAVTVGNVTVIITDFKEKTRSSSTSSSTVTSSAGSEQQNQSSSGSESTDKGSSRSSTPKGDMSAVNDESF
notes: source: High Five insect cells (baculovirus), purified following the same procedure as the wild-type protein; not shown: His6, N-terminal, cleaved
- binding result [1]: binds

B3: RYBP_(T31A/F32A) (natural protein, human, UniProt Q8N488 1-228, looked up)
chain: MTMGDKKSPTRPKRQAKPAADEGFWDCSVCAARNSAEAFKCSICDVRKGTSTRKPRINSQLVAQQVAQQYATPPPPKKEKKEKVEKQDKEKPEKDKEISPSVTKKNTNKKTKPKSDILKDPPSEANSIQSANATTKTSETNHTSRPRLKNVDRSTAQQLAVTVGNVTVIITDFKEKTRSSSTSSSTVTSSAGSEQQNQSSSGSESTDKGSSRSSTPKGDMSAVNDESF
notes: as for B2
- binding result [1]: binds

B4: human BMI1, full length (natural protein, UniProt P35226 1-326, looked up)
chain: MHRTTRIKITELNPHLMCVLCGGYFIDATTIIECLHSFCKTCIVRYLETSKYCPICDVQVHKTRPLLNIRSDKTLQDIVYKLVPGLFKNEMKRRRDFYAAHPSADAANGSNEDRGEVADEDKRIITDDEIISLSIEFFDQNRLDRKVNKDKEKSKEEVNDKRYLRCPAAMTVMHLRKFLRSKMDIPNTFQIDVMYEEEPLKDYYTLMDIAYIYTWRRNGPLPLKYRVRPTCKRMKISHQRDGLTNAGELESDSGSDKANSPAGGIPSTSSCLPSPSTPVQSPHPQFPHISSTMNGTSNSPSGNHQSSFANRPRKSSVNGSSATSSG
notes: In the cryo-EM sample a subunit of vPRC1; residues 3-107 were built; also called BIM1; source: High Five insect cells (baculovirus), coexpressed with RING1B, purified; not shown: His6, C-terminal, kept
- binding result [2]: binds
- binding result [3]: binds
